Key:
clinical [1] = details: human, tumor lesions; for SUV at 2.5 h / SUV at 1.5 h: non-dosimetry group; for SUV at 2.5 h: breast tumors, 2 h 30 minutes; for SUV at 1.5 h: prostatic tumors, 1 h 30 minutes
Excerpt: (§1) The primary objective was to characterize preliminary targeting properties of [68Ga] NeoB in patients with malignancies known to overexpress GRPR. The primary efficacy endpoints were: • Number and location of tumor lesions detected by [68Ga]-NeoBOMB1 overall and for each tumor type • Calculation of the ratio tumor/background standard uptake value (SUV) and %injected dose per gram of tissue (ID/g) and calculation of absorbed dose (mGy/MBq) in tumor overall and for each tumor type.
(§2) The dosimetry group comprised only patients with breast cancer (N=2).

GRPR = GRPR (Homo sapiens, UniProt P30550); assay: clinical; details: dosimetry group, breast cancer N=2
Sequence of GRPR (P30550 whole entry): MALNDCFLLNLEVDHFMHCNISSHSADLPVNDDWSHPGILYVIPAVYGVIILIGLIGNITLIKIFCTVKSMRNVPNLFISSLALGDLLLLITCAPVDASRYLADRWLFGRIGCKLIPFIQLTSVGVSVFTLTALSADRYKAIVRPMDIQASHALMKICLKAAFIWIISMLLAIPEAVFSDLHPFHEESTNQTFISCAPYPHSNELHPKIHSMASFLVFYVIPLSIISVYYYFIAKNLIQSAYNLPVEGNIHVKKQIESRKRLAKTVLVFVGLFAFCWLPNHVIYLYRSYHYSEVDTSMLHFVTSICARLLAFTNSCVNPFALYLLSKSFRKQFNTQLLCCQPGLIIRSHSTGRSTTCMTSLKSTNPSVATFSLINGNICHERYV
Excerpt: as §1, §2

clinical [2] = details: human, Relative radiotracer uptake
Excerpt: as §1
Accordingly, highest relative tracer uptake following administration of a bombesin antagonist is expected in pancreas, kidney, and liver (Roivainen et al, 2013).

In the case of `CC(C)CC(CC(C)C)NC(=O)[C@H](Cc1cnc[nH]1)NC(=O)CNC(=O)[C@@H](NC(=O)[C@H](C)NC(=O)[C@H](Cc1c[nH]c2ccccc12)NC(=O)[C@H](CCC(N)=O)NC(=O)[C@@H](Cc1ccccc1)NC(=O)COCC(=O)Nc1ccc(CNC(=O)CN2CCN(CC(=O)O)CCN(CC(=O)O)CCN(CC(=O)O)CC2)cc1)C(C)C` [[68Ga]-NeoB, metal not drawn], the SUV at 2.5 h (clinical [1]; overall (breast tumors), highest SUVmax, overall) is reported as 23.1 SUV, the SUV at 1.5 h (clinical [1]; overall locations (prostatic tumors), highest SUVmean, overall locations) is reported as 11.6 SUV and the SUV at 2 h (clinical [1]; soft tissue/visceral (breast cancer), highest SUVmax, dosimetry group, breast cancer N=2, soft tissue/visceral, 2 h) is reported as 25.8 SUV. For the same compound, the SUV at 4 h (clinical [1]; soft tissue/visceral (breast cancer), highest SUVmax, dosimetry group, breast cancer N=2, soft tissue/visceral) was 26.4 SUV, the SUV at 0.25 h (clinical [1]; soft tissue/visceral (breast cancer), highest SUVmean, dosimetry group, breast cancer N=2, soft tissue/visceral, 15 minutes) was 9.24 SUV and the SUV at 4 h (clinical [1]; soft tissue/visceral (breast cancer), highest SUVmean, dosimetry group, breast cancer N=2, soft tissue/visceral) was 9.14 SUV. The SUV at 2.5 h (clinical [1]; soft tissue/visceral (breast tumors), highest SUVmax, soft tissue/visceral) was 22.1 SUV, the SUV at 1.5 h (clinical [1]; soft tissue/visceral (prostatic tumors), highest SUVmean, soft tissue/visceral) was 14 SUV and the “time at which SUVmax values in lesions peaked” value (GRPR) was 4 h. For the same compound, the “time at which SUVmean values in lesions peaked” value (GRPR) was 15 min, the tissue uptake at 0.25 h (clinical [2]; Liver, patient FR01-008, 15 min/38.6 min actual) was 0.00794 %ID/g and the tissue uptake at 0.25 h (clinical [2]; alveolar-interstitial (lungs), total radioactivity, patient FR01-009, 15 min/17.8 min actual) was 0.00124 %ID/g. For the same compound, the tissue uptake at 1 h (clinical [2]; alveolar-interstitial (lungs), total radioactivity, patient FR01-009, 60 min/60.7 min actual) was 0.000884 %ID/g, the tissue uptake at 2 h (clinical [2]; alveolar-interstitial (lungs), total radioactivity, patient FR01-009, 120 min/123.9 min actual) was 0.000591 %ID/g and the tissue uptake at 4 h (clinical [2]; alveolar-interstitial (lungs), total radioactivity, patient FR01-009, 240 min/207.9 min actual) was 0.000386 %ID/g. It also gave a tissue uptake at 0.25 h (clinical [2]; heart wall, total radioactivity, patient FR01-009, 15 min/17.8 min actual) of 0.0034 %ID/g, a tissue uptake at 1 h (clinical [2]; heart wall, total radioactivity, patient FR01-009, 60 min/60.7 min actual) of 0.00207 %ID/g and a tissue uptake at 2 h (clinical [2]; heart wall, total radioactivity, patient FR01-009, 120 min/123.9 min actual) of 0.00142 %ID/g. For the same compound, the tissue uptake at 4 h (clinical [2]; heart wall, total radioactivity, patient FR01-009, 240 min/207.9 min actual) was 0.000928 %ID/g, the tissue uptake at 0.25 h (clinical [2]; kidneys, total radioactivity, patient FR01-009, 15 min/17.8 min actual) was 0.0048 %ID/g and the tissue uptake at 1 h (clinical [2]; kidneys, total radioactivity, patient FR01-009, 60 min/60.7 min actual) was 0.0038 %ID/g. It also gave a tissue uptake at 2 h (clinical [2]; kidneys, total radioactivity, patient FR01-009, 120 min/123.9 min actual) of 0.00505 %ID/g, a tissue uptake at 4 h (clinical [2]; kidneys, total radioactivity, patient FR01-009, 240 min/207.9 min actual) of 0.00278 %ID/g and a tissue uptake at 1 h (clinical [2]; liver, total radioactivity, patient FR01-008, 60 min/62.6 min actual) of 0.00296 %ID/g. For the same compound, the tissue uptake at 2 h (clinical [2]; liver, total radioactivity, patient FR01-008, 120 min/123.2 min actual) was 0.00197 %ID/g, the tissue uptake at 4 h (clinical [2]; liver, total radioactivity, patient FR01-008, 240 min/221.1 min actual) was 0.00162 %ID/g and the tissue uptake at 0.25 h (clinical [2]; liver, total radioactivity, patient FR01-009, 15 min/17.8 min actual) was 0.00866 %ID/g. The tissue uptake at 1 h (clinical [2]; liver, total radioactivity, patient FR01-009, 60 min/60.7 min actual) was 0.00564 %ID/g, the tissue uptake at 2 h (clinical [2]; liver, total radioactivity, patient FR01-009, 120 min/123.9 min actual) was 0.00428 %ID/g and the tissue uptake at 4 h (clinical [2]; liver, total radioactivity, patient FR01-009, 240 min/207.9 min actual) was 0.00317 %ID/g. The tissue uptake at 0.25 h (clinical [2]; pancreas, total radioactivity, patient FR01-008, 15 min/38.6 min actual) was 0.0471 %ID/g, the tissue uptake at 1 h (clinical [2]; pancreas, total radioactivity, patient FR01-008, 60 min/62.6 min actual) was 0.0484 %ID/g and the tissue uptake at 2 h (clinical [2]; pancreas, total radioactivity, patient FR01-008, 120 min/123.2 min actual) was 0.0545 %ID/g. It also gave a tissue uptake at 4 h (clinical [2]; pancreas, total radioactivity, patient FR01-008, 240 min/221.1 min actual) of 0.0628 %ID/g, a tissue uptake at 0.25 h (clinical [2]; pancreas, total radioactivity, patient FR01-009, 15 min/17.8 min actual) of 0.0215 %ID/g and a tissue uptake at 1 h (clinical [2]; pancreas, total radioactivity, patient FR01-009, 60 min/60.7 min actual) of 0.0291 %ID/g. For the same compound, the tissue uptake at 2 h (clinical [2]; pancreas, total radioactivity, patient FR01-009, 120 min/123.9 min actual) was 0.0345 %ID/g, the tissue uptake at 4 h (clinical [2]; pancreas, total radioactivity, patient FR01-009, 240 min/207.9 min actual) was 0.0374 %ID/g and the tissue uptake at 0.25 h (clinical [2]; red (active) marrow, total radioactivity, patient FR01-008, 15 min/38.6 min actual) was 0.00331 %ID/g. It also gave a tissue uptake at 1 h (clinical [2]; red (active) marrow, total radioactivity, patient FR01-008, 60 min/62.6 min actual) of 0.00116 %ID/g, a tissue uptake at 2 h (clinical [2]; red (active) marrow, total radioactivity, patient FR01-008, 120 min/123.2 min actual) of 0.000916 %ID/g and a tissue uptake at 4 h (clinical [2]; red (active) marrow, total radioactivity, patient FR01-008, 240 min/221.1 min actual) of 0.000346 %ID/g. For the same compound, the tissue uptake at 0.25 h (clinical [2]; red (active) marrow, total radioactivity, patient FR01-009, 15 min/17.8 min actual) was 0.00186 %ID/g, the tissue uptake at 1 h (clinical [2]; red (active) marrow, total radioactivity, patient FR01-009, 60 min/60.7 min actual) was 0.00136 %ID/g and the tissue uptake at 2 h (clinical [2]; red (active) marrow, total radioactivity, patient FR01-009, 120 min/123.9 min actual) was 0.000998 %ID/g. For the same compound, the tissue uptake at 4 h (clinical [2]; red (active) marrow, total radioactivity, patient FR01-009, 240 min/207.9 min actual) was 0.000722 %ID/g, the tissue uptake at 0.25 h (clinical [2]; spleen, total radioactivity, patient FR01-008, 15 min/38.6 min actual) was 0.00409 %ID/g and the tissue uptake at 1 h (clinical [2]; spleen, total radioactivity, patient FR01-008, 60 min/62.6 min actual) was 0.00211 %ID/g. It also gave a tissue uptake at 2 h (clinical [2]; spleen, total radioactivity, patient FR01-008, 120 min/123.2 min actual) of 0.00141 %ID/g, a tissue uptake at 0.25 h (clinical [2]; spleen, total radioactivity, patient FR01-009, 15 min/17.8 min actual) of 0.00338 %ID/g and a tissue uptake at 1 h (clinical [2]; spleen, total radioactivity, patient FR01-009, 60 min/60.7 min actual) of 0.00256 %ID/g. The tissue uptake at 2 h (clinical [2]; spleen, total radioactivity, patient FR01-009, 120 min/123.9 min actual) was 0.00191 %ID/g, the tissue uptake at 4 h (clinical [2]; spleen, total radioactivity, patient FR01-009, 240 min/207.9 min actual) was 0.00145 %ID/g and the tissue uptake at 0.25 h (clinical [2]; tumor lesion T1-lungL, total radioactivity, patient FR01-009, 15 min/17.8 min actual) was 0.00367 %ID/g. It also gave a tissue uptake at 1 h (clinical [2]; tumor lesion T1-lungL, total radioactivity, patient FR01-009, 60 min/60.7 min actual) of 0.00455 %ID/g, a tissue uptake at 2 h (clinical [2]; tumor lesion T1-lungL, total radioactivity, patient FR01-009, 120 min/123.9 min actual) of 0.00481 %ID/g and a tissue uptake at 4 h (clinical [2]; tumor lesion T1-lungL, total radioactivity, patient FR01-009, 240 min/207.9 min actual) of 0.00385 %ID/g. It also gave a tissue uptake at 0.25 h (clinical [2]; tumor lesion T2-lungR, total radioactivity, patient FR01-009, 15 min/17.8 min actual) of 0.00466 %ID/g and a tissue uptake at 1 h (clinical [2]; tumor lesion T2-lungR, total radioactivity, patient FR01-009, 60 min/60.7 min actual) of 0.00463 %ID/g.
